Consider eleven molecules from patent EP4524159A1, “ANTIBODY AND USE THEREOF” (Sichuan Huiyu Pharmaceutical Co., Ltd., priority 2022, dated 2023).

Positions count from the first letter of the chain named.

T1: HuCDCP1-B (human) (UniProt Q9H5V8)
T1 sequence (looked up): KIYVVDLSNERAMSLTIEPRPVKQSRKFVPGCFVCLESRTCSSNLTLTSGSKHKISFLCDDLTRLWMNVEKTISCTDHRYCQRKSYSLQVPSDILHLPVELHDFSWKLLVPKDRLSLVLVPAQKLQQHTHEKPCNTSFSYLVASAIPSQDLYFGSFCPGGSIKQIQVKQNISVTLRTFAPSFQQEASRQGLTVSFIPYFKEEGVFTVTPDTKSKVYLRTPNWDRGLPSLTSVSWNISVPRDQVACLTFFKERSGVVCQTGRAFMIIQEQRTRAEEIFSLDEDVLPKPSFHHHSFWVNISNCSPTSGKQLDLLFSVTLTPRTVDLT

B1: SB5 (antibody, V domains shown)
VH: QVQLRESGPGLVAPSQSLSITCTVSGFSLTDFGVNWVRQPPGKGLEWLGIIWANGRIEYNSALKSRLSISKDNSRSQVFLKLNSLQTDDTARYYCARDHDYDVEAMDYWGQGTSVTVSA
VL: QIVLTQSPAIKSASPGEKVTMTCSASSSVIYMHWYQQKSGSSPKRWIYDTSKLASGVPVRFSGSGSGTSYSLTISTMEAEDAATYYCQQWSSYPPTFGGGTKVEIK
B2: SB1 (antibody, V domains shown)
VH: QVQLQQSGPDLVRPGESVKISCKGSGYTFTDHAIHWVRQSHAKSLEWIGVISFSYDNTKYNQNFKGKATMTVDKSSNTAYMELARLTSEDSAIYYCARDCYGSNRGYFDYWGQGTTLTVSS
VL: DIRMTQSPSSMYASLGERVTITCKASQDINRFLSWFLQRPGKAPKTLIYRANNLVEGVPSRFSGSGSGQDYSLIISNLEYEDMGIYYCLQYDEFPRTFGGGTKLEIK
B3: SB4 (antibody, V domains shown)
VH: QVQLQQSGAELVRPGTSVKISCKASGYTFTNYWLGWVKQRPGHGLEWIGDNYPGDNYRNFNEKFKGKATLTTDASSSTAYLQLSSLISEDSAVYFCTRSGGSRYYTMDYWGQGTSVTVSS
VL: DIVMTQAAFSNPVTLGTSASISCRSSRSLLHNNGITYLYWYLQKPGQSPQLLIYQMSNLASGVPDRFHSSGSGTDFTLSISRVEAEDVGVYYCAQNLDLPYTFGGGTKLEIK
B4: SB7 (antibody, V domains shown)
VH: QVQLQQSGPELVSPGESVKISCKGSGYTFTDYAVHWVKQSHSKSLEWIGVKSVYYGITKYSQNFKDKATMTVDKSSSTAYMELARLTSEDSAIYYCARDSYGSSRGYFDYWGQGTTLTVSS
VL: DIKMTQSPSSIYVSPGERVTITCKASQDINSFLSWFQQKPGKSPKTLIYRANRLVDGVPSRFSGSGSGQDYSLTISSLEYEDMGIYYCLQYDEFPRTFGGGTKLEIK
B5: SB6 (antibody, V domains shown)
VH: QGQMQQSGAELVKPGASVKLSCKTSGFTFNSSYITWLKQKPGQSLEWIAWIFAGTGGTYYNEKFTDKAQLTVDTTSSTAYMQFSSLTTEDSAIYYCARHGLGYDYWGQGTTLTVSS
VL: SIVMTQTPKFLLVSAGDRVTITCKASQSVNTDVAWYQQKSGQSPKLLIYSASNRYTGVPDRFTGSGYGTDFTFTISTVQAEDLAVYFCQQDHSSPPWTFGGGTKLEIK
B6: G10F6-MMAE (conjugate)
VH: EVKLVESGPGILQPSQTLSLTCSFSGFSLSTSGMGVSWVRQPSGKGLEWLAHIYWDDDKRYNPSLKGRLTISKDTPRNQVFLEITSVDTTDTATYYCARVPGNWDEDAMDYWGQGTTVTVSS
VL: DIQMTQSPLSLPVSLGDQASISCRSSQNIVHTNGNTYLEWYLQKVGQSPKLLIYKVSNRFSGVPDRFSGSGSGTDFTLKISRVEAEDLGVYYCFQGSHVPYTFGGGTKLEIK
B7: 3C11-MMAE (conjugate)
VH: EVQLQQSGTVLARPGASVKMSCKASGYNFISYWLHWIKQRPGQGLEWIGGIYPGNTDTTYNQKFKGKAKVTAVTSATTAYMELSSLTNEDSAVYYCIRYDYDRGMDYWGQGTTVTVSS
VL: DIQMTQSPSSFSVSLGDRVTITCRASEDIYYRLAWYQQKPGNAPRLLISGATALETGVPSRFSGSGSGKDYTLSITSLQTEDVATYYCQHYWNIPWTFGGGTKLEIK
B8: 3B 12H5-MMAE (conjugate)
VH: EVQLQQSGTVLARPGASVKMSCKASGYSFTIYWVHWVKQRPGQGLEWIGAVYPGNDDTSYNQNFKGKAKLTAVTSATTAYMELSSLTIDDSAVYYCTRHTYDEVFDYWGQGTTVTVSS
VL: B7 VL with Q3V, F11L, R24K, A51G, A53N, T56A, V58I, T85I, I94T
B9: 8E5-MMAE (conjugate)
VH: EVQLKESGPELKKPGETVKISCKASGYTLTDFSMHWLKQAPGKGLKWMGWINTETGAPTYADDFKGRFALSLDTSANTAYLQINNLKNEDTATYFCSRGRDYDPHFDYWGQGTTVTVSS
VL: EIVLTQSPATLSVTPGDRVSLSCRASQSISDFLHWYQQRSHESPRLLIKYASQSISGIPSRFGGSGSGSDFTLNINTVEPEDVGMYYCQSAHSFPYTFGGGTKLEIK
B10: 10D2-MMAE (conjugate)
VH: EVQLQQSGPELKKPGETVKISCKASGYTFTDYSMHWVKQAPGKGLKWMGWINTETGQPTYADDFKGRFAFSLETSASSAYLQINNLKNEDTATYFCTRTFYYDYVGDYWGQGTTVTVSS
VL: DIVMTQSHKFMSTSVGDRVSITCKASQDVSTAVAWYRQKPGQSPKLLIYWASTRHTGVPDRLTGSGSGTDFALTINSVQAEDLALYYCQQHSSTPYTFGGGTKLEIK
B11: 6A7-MMAE (conjugate)
VH: EVQLKESGAELVRPGASVKVSCKASGYSFTSYWMNWVKQRPGQGLEWIGMIHPSDSETKLNQKFRDRASLTVDKSSSTAYMQLSSPTSEDSAVYYCTINYESFYYAMDYWGQGTTVTVSS
VL: DIVMTQSPASLAVSLGQRATISCRASKSVSTSGYSYMHWYQQKPGQPPKLLLYLASNLESGVPARFSGSGSGADFTLNIHPVEEEDAATYYCLHSRELPYTFGGGTKLEIK

The first data set has as its target T1, HuCDCP1-B (human). In words: ELISA, HuCDCP1-B coated 2 ug/ml.
Conditions: not given
Take B1: the ELISA was 0.208 nM.

The target of the next data set is HuCDCP1-C (human) (UniProt Q9H5V8). In words: ELISA, HuCDCP1-C coated 2 ug/ml.
Conditions: not given
In turn, B1 came in with an ELISA of 0.413 nM.
Take B2: the ELISA was 0.092 nM.
On the same count and under the same terms, the figure for B3 is 0.071 nM; for B4 it is 0.034 nM; for B5 it is 0.027 nM.

Tested on in a further data set: not listed separately
In words: Drug : antibody ratio (DAR) of antibody-vc-MMAE conjugates by hydrophobic HPLC. To be noted: chimeric antibody-vc-MMAE conjugates. Here is the method:
The specific operation was to reduce each antibody and the control antibody CD27H10 (27H10 antibody in WO2018112334A1) with a 2-fold molar amount of […] (TECP) at 4 °C for 1 hour. A 7-fold molar amount of vcMMAE was then added for ligation at 4-25 °C for 1 h, and then the reaction mixture was dialyzed against 1 × PBS pH 8.0 and filtered for sterilization. Drug : antibody ratio (DAR) was detected by hydrophobic kurtosis with HLPC, and the molecular coupling results are shown in Table 14. Table 14 DAR values of antibody-drug conjugates
The humanized antibodies 1CP-125, 1CP-117 and 1CP-152 were subjected to linking to form ADC, and the linking process was the same as in example 18. Table 18 DAR values of antibody-drug conjugates
Turning to B6, the DAR was 3.6.
For B7, the DAR turned out to be 3.48.
The same measure, in the same setting: the same measure for B8: 3.2.
For the molecule B9, the DAR is 3.65.
Still for that read-out and setting: the figure for B10 is 3.5; for B11 it is 3.6.

The same data set, now with this note: share of DAR2 species.
In the case of B6, the “DAR2 (%)” value was 32.59%.
Turning to B7, the “DAR2 (%)” value was determined as 33.89%.
Same read-out and setting: the figure for B8 is 29.966%; for B9 it is 32.01%.
Same read-out and setting: the figure for B10 is 34.10%.
On the same count and under the same terms, the same measure for B11: 24.99%.

Still in this data set, the particulars now being: share of DAR4 species.
Take B6: the “DAR4 (%)” value came out at 35.66%.
Same read-out and setting: the figure for B7 is 28.50%; for B8 it is 37.81%; for B9 it is 37.12%.
The same measure, in the same setting: the same measure for B10: 39.38%.
Turning to B11, the “DAR4 (%)” value came out at 38.25%.

The same data set, now with this note: share of DAR6 species.
For the molecule B6, the “DAR6 (%)” value is listed as 12.02%.
The same measure, in the same setting: the same measure for B7: 8.28%.
Regarding B8, the “DAR6 (%)” value is 7.324%.
Same read-out and setting: the same measure for B9: 11.15%; for B10: 10.24%.
On to B11, for which the “DAR6 (%)” value is on record as 12.28%.

The same data set, now with this note: share of DAR8 species.
Take B6: the “DAR8 (%)” value is 10.04%.
Same read-out and setting: the figure for B7 is 9.09%; for B8 it is 1.741%; for B10 it is 8.00%.
Same read-out and setting: the figure for B11 is 5.30%.

Another data set has as its system MCF7. The experiment in a line: In vitro killing by chimeric antibody-vc-MMAE conjugate (CellTiter-Glo, 120 h). The data set is classed as cell-based. To be noted: MCF7 (120 h), cells that do not express CDCP1. Here is the method: The inhibition activity of antibody on tumor cell growth was calculated by graphpad fitting based on the signal value and antibody concentration, and the results are shown in FIG. 5 and Table 15. Table 15 IC50 value of anti-CDCP1 chimeric antibody -vcMMAE conjugate on tumor cells
Consider B6, for which the IC50 is more than 200 nM.
The molecule B9 registered an IC50 of approximately 200 nM.
